In paper PMC4162137 one finds percent of cells positive for fluorescence (% cells positive for fluorescence), mef2c enhancer luciferase reporter in HEK293 cells: 40 ng TM-ERG3 with 0-40 ng TM-ERG8 plasmid; reduction in luciferase activity against TM-ERG3 alone (at 20 ng or 40 ng TM-ERG8) (% reduction in luciferase activity) and percent of cells positive for fluorescence (% positive cells) data, which are given here for two substances.

In experiment [1] the target is TMPRSS2-ERG8 encoded protein (Type II ERG) fused to an N- or C-terminal fragment of Venus (human). The experiment in a line: split reporter (BiFC, NanoBiT); BiFC with split Venus in HEK293 cells, 24 hours after transfection, percent of fluorescent cells counted by flow cytometry.
For experiment [2], the target named is TMPRSS2-ERG3 encoded protein (Type I ERG) fused to an N- or C-terminal fragment of Venus (human) (UniProt P11308).
The target is the same in experiment [3]. The experiment in a line: split reporter (BiFC, NanoBiT); BiFC with split Venus in HEK293 cells, 24 hours after transfection, percent of fluorescent cells counted by flow cytometry.

Sequence of TMPRSS2-ERG8 encoded protein (Type II ERG) fused to an N- or C-terminal fragment of Venus (human) (P11308 whole entry, the tested form may be a part): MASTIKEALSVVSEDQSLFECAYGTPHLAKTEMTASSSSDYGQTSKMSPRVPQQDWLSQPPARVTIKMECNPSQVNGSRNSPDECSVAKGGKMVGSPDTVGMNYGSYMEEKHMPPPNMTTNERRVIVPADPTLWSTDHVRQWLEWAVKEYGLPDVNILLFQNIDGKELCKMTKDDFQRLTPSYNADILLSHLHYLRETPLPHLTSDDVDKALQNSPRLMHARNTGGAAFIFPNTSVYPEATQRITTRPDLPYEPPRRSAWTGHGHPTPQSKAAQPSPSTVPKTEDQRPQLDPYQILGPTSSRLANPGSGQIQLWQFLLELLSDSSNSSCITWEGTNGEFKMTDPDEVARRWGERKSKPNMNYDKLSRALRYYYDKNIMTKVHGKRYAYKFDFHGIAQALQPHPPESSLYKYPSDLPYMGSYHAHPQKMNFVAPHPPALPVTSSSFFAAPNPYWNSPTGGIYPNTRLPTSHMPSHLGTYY

The substance “TMPRSS2-ERG3 encoded protein (Type I ERG) fused to an N- or C-terminal fragment of Venus (from UniProt P11308-4 33-479) (natural protein)” returned a percent of cells positive for fluorescence (% cells positive for fluorescence) in experiment [1] of 10.1.
For the substance “TMPRSS2-ERG8 encoded protein (Type II ERG) fused to an N- or C-terminal fragment of Venus (natural protein)”, the mef2c enhancer luciferase reporter in HEK293 cells: 40 ng TM-ERG3 with 0-40 ng TM-ERG8 plasmid; reduction in luciferase activity against TM-ERG3 alone (at 20 ng or 40 ng TM-ERG8) (% reduction in luciferase activity) in experiment [2] came to 50. Besides, the percent of cells positive for fluorescence (% cells positive for fluorescence) in experiment [3] was found to be 12.7. Moreover, the percent of cells positive for fluorescence (% positive cells) in experiment [1] was found to be 5.4.
